Experimental findings from patent US20180305450A1 (AstraZeneca / MedImmune, published 2018) are described below.

Numbering of substitutions follows the chain as printed.

The chains are these.
B1: PaB670010 scFv (scFv, V domains shown)
VH: EVQLLESGGGLVQPGGSLRLSCAASGFTFSSYAMNWVRQAPGKGLEWVSTISYSGSLIHYADSVKGRFTISRDNSKNTLYLQMNSLRAEDTAVYYCARINNDPMDVWGQGTLVTVSS
VL: SIELTQPPSVSVSPGQTASITCSGDNLGKKYVQWYQQKPGQSPVLVIYDDSNRPSGIPERFSGSNSGNTATLTISGTQAMDEADYYCQTWDGNPTTGETNVFGGGTKLTVL
notes: purified scFv; also called ZZ1DRB-B08
B2: PaB670045 scFv (scFv, V domains shown)
VH: B1 VH with H59S, N100H, N101H
VL: B1 VL
notes: purified scFv; also called ZZ1KX3-F01
B3: PaB670082 scFv (scFv, V domains shown)
VH: B1 VH with Y53H, G55H, H59S, D62H, K65H
VL: B1 VL
notes: purified scFv; also called ZZ1OZA-D02
B4: PaB670070 scFv (scFv, V domains shown)
VH: B1 VH with H59S
VL: B1 VL with G92H, P94H, T95H, E98H
notes: purified scFv; also called ZZ1KXE-D06
B5: PaB670075 scFv (scFv, V domains shown)
VH: B1 VH with H59S
VL: B1 VL with T89H, P94H, T95H, T96H, V101H
notes: purified scFv; also called ZZ1NHH-A05
B6: PaB670076 scFv (scFv, V domains shown)
VH: B1 VH with H59S
VL: B1 VL with Q88H, G92H, N93H, P94H, T99H
notes: purified scFv; also called ZZ1NHH-F09
B7: PaB670034 scFv (scFv, V domains shown)
VH: B1 VH with H59S
VL: B1 VL with T96H
notes: purified scFv; also called ZZ1IGF-B11
B8: PaB670078 scFv (scFv, V domains shown)
VH: B1 VH with H59S
VL: B1 VL with Q88H, T89H, D91H, N93H, T95H, T99H
notes: purified scFv; also called ZZ1OZJ-G03
B9: PaB670071 scFv (scFv, V domains shown)
VH: B1 VH with H59S
VL: B1 VL with Q88H, D91H, G92H, N93H, P94H, T95H, T99H, V101H
notes: purified scFv; also called ZZ1L3F-A02
B10: PaB670066 scFv (scFv, V domains shown)
VH: B1 VH with H59S
VL: B1 VL with Q88H, T89H, D91H, P94H, T95H, V101H
notes: purified scFv; also called ZZ1KX6-D05
B11: PaB670068 scFv (scFv, V domains shown)
VH: B1 VH with H59S
VL: B1 VL with N93H, P94H, T96H, T99H, N100H
notes: purified scFv; also called ZZ1KXE-B01
B12: PaB670048 scFv (scFv, V domains shown)
VH: B1 VH with H59S, N100H, N101H, V106H
VL: B1 VL
notes: purified scFv; also called ZZ1KX4-E11
B13: PaB670077 scFv (scFv, V domains shown)
VH: B1 VH with H59S
VL: B1 VL with Q88H, T89H, D91H, N93H, P94H, V101H
notes: purified scFv; also called ZZ1OZJ-C11
B14: PaB670073 scFv (scFv, V domains shown)
VH: B1 VH with H59S
VL: B1 VL with T89H, D91H, N93H, T95H, T96H, T99H
notes: purified scFv; also called ZZ1L3F-H03
B15: PaB670064 scFv (scFv, V domains shown)
VH: B1 VH with H59S
VL: B1 VL with Q88H, D91H, G92H, T95H, V101H
notes: purified scFv; also called ZZ1KX6-B09
B16: PaB670067 scFv (scFv, V domains shown)
VH: B1 VH with H59S
VL: B1 VL with Q88H, D91H, G92H, N93H, T96H, T99H
notes: purified scFv; also called ZZ1KXE-A05
B17: PaB670020 scFv (scFv, V domains shown)
VH: B1 VH with H59S, N101H
VL: B1 VL
notes: purified scFv; also called ZZ1IGD-D05
B18: PaB670080 scFv (scFv, V domains shown)
VH: B1 VH with H59S
VL: B1 VL with N93H, P94H, T95H, V101H
notes: purified scFv
B19: PaB670079 scFv (scFv, V domains shown)
VH: B1 VH with H59S
VL: B1 VL with T89H, N93H, P94H, V101H
notes: purified scFv; also called ZZ1OZJ-G05
B20: PaB670081 scFv (scFv, V domains shown)
VH: B1 VH with Y53H, S56H, L57H, H59S, Y60H, A61H, V64H, K65H
VL: B1 VL
notes: purified scFv; also called ZZ1OZA-C01

As a reminder, the IC50 is the midpoint of a concentration-inhibition curve.

T1 sequence (P55085 26-75): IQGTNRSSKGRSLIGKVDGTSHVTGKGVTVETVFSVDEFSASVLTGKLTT

One test addresses T1, recombinant biotinylated human PAR2 extracellular domain (residues 1-75), N-terminal AviTag, C-terminal Flag … (human, UniProt P55085 26-75, biotin on the AviTag (enzymatic biotinylation)).
T1 construct: also called Bio-human-PAR2 ECD; human PAR2 ECD; not shown: N-terminal AviTag (Avidity LLC); C-terminal Flag and poly Histidine tags
Description: HTRF competition with Par0067 IgG, pH 7.4, scFv. The method, then:
(§1) 5 μl/well of the appropriate pH 4.44 nM Par0067 IgG solution was added to all wells of the relevant assay plate (pH 7.4 and pH 6.0).
(§2) Test scFv Preparation/Addition: [0172] a) For parallel single point HTS of crude un-purified bacterial lysate scFv samples at both pH 7.4 and pH 6.0 samples were first pre-diluted to 40% of their neat concentration using either pH 7.4 or pH 6.0 assay buffer as appropriate. Subsequently 5 μl of 40% pre-diluted sample was then transferred into the appropriate assay (pH 7.4 or pH 6.0) in order to give a final assay sample concentration of 10.0% (in the 20 μl final assay volume). The parent Par0067 scFv was included in all HTS experiments as a control as were specific pH dependent antibodies as those became available (for benchmarking). […] Duplicate 11 point 1:3 serial dilutions then were prepared on 384 well polypropylene Greiner plates in each of the two assay buffers (pH 7.4 & 6.0). 5 μl per well of each serial dilution was transferred from the relevant pH scFv dilution plate to the corresponding assay plate (pH 7.4 and pH 6.0). 5 μl of the appropriate pH assay buffer was added to the total and non-specific wells. The parent Par0067 purified scFv was included in all multipoint dose response IC₅₀ experiments as a control as were specific pH dependent purified scFv as those became available (for benchmarking).
(§3) For multipoint dose response curves % Specific Binding values were plotted versus test purified antibody concentration (scFv or IgG). IC₅₀ values were determined via a sigmoidal dose response inhibition variable slope curve fit (4 parameter logistic equation) using Graphpad Prism Software.
B1: the IC50 came to 15.4 nM.
Take B2: the IC50 was determined as 9.8 nM.
On the same count and under the same terms, with B3 the figure was 25.4 nM; with B4, 60.4 nM.
Still for that read-out and setting: with B5 the figure was 102 nM.
Same read-out and setting: with B6 the figure was 46.2 nM; with B7, 5.6 nM.
For the molecule B8, the IC50 stood at 33.3 nM.
Still for that read-out and setting: with B9 the figure was 101 nM.
On the same count and under the same terms, with B10 the figure was 52.2 nM; with B11, 77.8 nM; with B12, 14.5 nM.
In the case of B13, the IC50 turned out to be 55.4 nM.
On the same count and under the same terms, to B14 belongs 72.1 nM; to B15, 67.1 nM.
Same read-out and setting: to B16 belongs 14.4 nM; to B17, 5.6 nM.
Consider B18, for which the IC50 came to 16.6 nM.
Take B19: the IC50 came to 44.2 nM.
Consider B20, for which the IC50 was 51.4 nM.

In a further test the target is T1, recombinant biotinylated human PAR2 …. Briefly: HTRF competition with Par0067 IgG, pH 6.0, scFv. The method, then: as §1, §2, §3
For orientation: TR-FRET usually uses a lanthanide donor and a delayed reading to cut background.
Turning to B1, the IC50 is 41.8 nM.
Consider B2, for which the IC50 amounted to 72.5 nM.
B3: the IC50 is 77.9 nM.
B4: the IC50 worked out at 270 nM.
On the same count and under the same terms, to B5 belongs 603 nM; to B6, 292 nM; to B7, 14.2 nM.
Consider B8, for which the IC50 came to 319 nM.
Same read-out and setting: to B9 belongs 425 nM; to B10, 487 nM; to B11, 448 nM.
Still for that read-out and setting: with B12 the figure was 139 nM; with B13, 620 nM.
Regarding B14, the half-maximal inhibitory concentration (IC50) worked out at 428 nM.
As for B15, the IC50 was 290 nM.
For the molecule B16, the IC50 stood at 113 nM.
On the same count and under the same terms, with B17 the figure was 18.5 nM; with B18, 158 nM; with B19, 490 nM.
Regarding B20, the IC50 came to 260 nM.

For another test the target is unchanged. Description: HTRF competition with Par0067 IgG, scFv. The method, then: as §1, §2, §3
On to B1, for which the “Fold IC50 (pH 6.0 v pH 7.4)” value was 2.7 fold and the “Fold IC50 pH 7.4 (Variant v Par0067)” value came to 4.7 fold.
For the molecule B2, the “Fold IC50 (pH 6.0 v pH 7.4)” value is 7.4 fold and the “Fold IC50 pH 7.4 (Variant v Par0067)” value turned out to be 3 fold.
In the same order, the values of B3 are 3.1 fold and 7.7 fold.
In the same order, the values of B4 are 4.5 fold and 18.3 fold.
In the same order, the values of B5 are 5.9 fold and 30.8 fold.
Consider B6, for which the “Fold IC50 (pH 6.0 v pH 7.4)” value was determined as 6.3 fold and the “Fold IC50 pH 7.4 (Variant v Par0067)” value turned out to be 14 fold.
Take B7: the “Fold IC50 (pH 6.0 v pH 7.4)” value came to 2.5 fold and the “Fold IC50 pH 7.4 (Variant v Par0067)” value stood at 1.7 fold.
In the same order, the values of B8 are 9.6 fold and 10.1 fold.
In the case of B9, the “Fold IC50 (pH 6.0 v pH 7.4)” value was 4.2 fold and the “Fold IC50 pH 7.4 (Variant v Par0067)” value amounted to 30.7 fold.
In the same order, the values of B10 are 9.3 fold and 15.8 fold.
In the case of B11, the “Fold IC50 (pH 6.0 v pH 7.4)” value was determined as 5.8 fold and the “Fold IC50 pH 7.4 (Variant v Par0067)” value was 23.6 fold.
In the same order, the values of B12 are 9.6 fold and 4.4 fold.
In the case of B13, the “Fold IC50 (pH 6.0 v pH 7.4)” value was found to be 11.2 fold and the “Fold IC50 pH 7.4 (Variant v Par0067)” value is 16.8 fold.
On the same counts, the results for B14 are 5.9 fold and 21.8 fold.
On the same counts, the results for B15 are 4.3 fold and 20.3 fold.
On the same counts, the results for B16 are 7.9 fold and 4.4 fold.
For B17, the “Fold IC50 (pH 6.0 v pH 7.4)” value turned out to be 3.3 fold and the “Fold IC50 pH 7.4 (Variant v Par0067)” value was found to be 1.7 fold.
With B18, the “Fold IC50 (pH 6.0 v pH 7.4)” value amounted to 9.5 fold and the “Fold IC50 pH 7.4 (Variant v Par0067)” value was determined as 5 fold.
Regarding B19, the “Fold IC50 (pH 6.0 v pH 7.4)” value came out at 11.1 fold and the “Fold IC50 pH 7.4 (Variant v Par0067)” value is 13.4 fold.
Consider B20, for which the “Fold IC50 (pH 6.0 v pH 7.4)” value is 5.1 fold and the “Fold IC50 pH 7.4 (Variant v Par0067)” value worked out at 15.6 fold.
